pKd: −log10 of the molar value.
How the values were obtained:
[1] = molecular target: RGS7/TS-Gβ5 duplex (human) (UniProt P49802); test: pull-down; Expi293 cells co-transfected with RGS7, TS-Gβ5, R7BP-HIS and either WDR61 (sample A) or R7BPΔNC (sample B); lysate on MagStrep type3 XT beads, 4 °C, one hour; Western blot with anti-Gβ5 and anti-R7BP, bands quantified
[2] = molecular target: R7BPΔNC (construct R7BPΔNC-TEV-TS) (human) (UniProt Q6MZT1); test: SPR; OpenSPR (Nicoya), Streptavidin sensor chip; tagged R7BP variant as ligand, purified R7-RGS/Gβ5 duplex as analyte at 3–5 concentrations; PBS pH 7.4, 0.005% Tween20; 25 µL per minute; 1:1-binding model; two independent experiments

Sequence of RGS9/Gβ5 duplex (O75916 whole entry): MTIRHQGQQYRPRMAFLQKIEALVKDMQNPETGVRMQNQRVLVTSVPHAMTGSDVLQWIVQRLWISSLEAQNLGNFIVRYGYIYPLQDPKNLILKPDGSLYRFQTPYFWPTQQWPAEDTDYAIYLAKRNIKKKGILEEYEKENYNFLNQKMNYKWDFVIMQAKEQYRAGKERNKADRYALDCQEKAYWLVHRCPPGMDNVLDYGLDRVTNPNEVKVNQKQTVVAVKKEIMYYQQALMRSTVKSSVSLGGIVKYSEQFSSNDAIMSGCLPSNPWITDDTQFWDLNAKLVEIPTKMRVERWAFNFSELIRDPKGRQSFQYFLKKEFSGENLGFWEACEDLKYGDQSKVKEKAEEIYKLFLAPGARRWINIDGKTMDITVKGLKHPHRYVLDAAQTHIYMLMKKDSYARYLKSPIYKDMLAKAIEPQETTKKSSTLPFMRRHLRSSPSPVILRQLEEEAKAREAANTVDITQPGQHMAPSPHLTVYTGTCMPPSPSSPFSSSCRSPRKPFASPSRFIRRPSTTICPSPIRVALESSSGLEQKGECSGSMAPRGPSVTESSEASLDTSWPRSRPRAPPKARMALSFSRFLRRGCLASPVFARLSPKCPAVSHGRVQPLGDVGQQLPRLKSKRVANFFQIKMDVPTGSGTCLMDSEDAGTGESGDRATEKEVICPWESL
Sequence of RGS9/Gβ5 duplex (O14775 43-395): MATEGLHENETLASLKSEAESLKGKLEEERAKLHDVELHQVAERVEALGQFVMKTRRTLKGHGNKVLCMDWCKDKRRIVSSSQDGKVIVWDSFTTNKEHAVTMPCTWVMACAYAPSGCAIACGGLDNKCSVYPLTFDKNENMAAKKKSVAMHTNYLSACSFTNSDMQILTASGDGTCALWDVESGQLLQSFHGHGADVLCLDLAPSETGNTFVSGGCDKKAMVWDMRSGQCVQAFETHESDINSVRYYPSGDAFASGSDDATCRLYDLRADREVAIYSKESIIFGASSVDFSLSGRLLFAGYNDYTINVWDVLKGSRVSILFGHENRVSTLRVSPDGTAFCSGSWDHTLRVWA
Sequence of RGS11/Gβ5 duplex (O94810 whole entry): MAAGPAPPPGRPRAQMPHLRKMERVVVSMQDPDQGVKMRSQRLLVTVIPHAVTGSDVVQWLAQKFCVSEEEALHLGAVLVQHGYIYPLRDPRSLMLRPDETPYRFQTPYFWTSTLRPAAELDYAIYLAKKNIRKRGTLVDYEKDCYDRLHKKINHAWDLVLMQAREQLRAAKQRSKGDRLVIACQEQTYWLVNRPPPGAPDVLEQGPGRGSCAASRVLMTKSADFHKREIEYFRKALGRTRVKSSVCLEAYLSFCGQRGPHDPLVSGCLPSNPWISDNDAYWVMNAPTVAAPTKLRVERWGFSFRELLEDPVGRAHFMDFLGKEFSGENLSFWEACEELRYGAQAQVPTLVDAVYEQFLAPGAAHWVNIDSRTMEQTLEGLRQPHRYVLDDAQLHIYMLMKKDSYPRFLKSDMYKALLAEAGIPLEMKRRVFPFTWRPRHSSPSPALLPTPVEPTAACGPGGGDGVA
Sequence of RGS11/Gβ5 duplex (O14775 43-395): as the sequence (O14775 43-395) above
Sequence of RGS6/Gβ5 duplex (P49758 whole entry): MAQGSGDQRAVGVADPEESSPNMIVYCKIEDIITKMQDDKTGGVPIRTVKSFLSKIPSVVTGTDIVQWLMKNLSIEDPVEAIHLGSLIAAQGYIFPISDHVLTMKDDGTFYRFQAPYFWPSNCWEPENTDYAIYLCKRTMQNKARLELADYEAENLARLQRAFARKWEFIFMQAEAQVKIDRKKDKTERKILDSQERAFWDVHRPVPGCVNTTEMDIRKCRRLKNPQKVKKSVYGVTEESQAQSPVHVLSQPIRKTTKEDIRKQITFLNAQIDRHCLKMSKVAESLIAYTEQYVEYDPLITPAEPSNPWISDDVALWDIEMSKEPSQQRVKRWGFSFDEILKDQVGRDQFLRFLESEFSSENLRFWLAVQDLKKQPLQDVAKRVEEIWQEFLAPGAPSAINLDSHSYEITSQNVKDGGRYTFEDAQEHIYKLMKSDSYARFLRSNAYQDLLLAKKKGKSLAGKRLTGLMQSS
Sequence of RGS6/Gβ5 duplex (O14775 43-395): as the sequence (O14775 43-395) above
Sequence of RGS7/Gβ5 duplex (P49802 whole entry): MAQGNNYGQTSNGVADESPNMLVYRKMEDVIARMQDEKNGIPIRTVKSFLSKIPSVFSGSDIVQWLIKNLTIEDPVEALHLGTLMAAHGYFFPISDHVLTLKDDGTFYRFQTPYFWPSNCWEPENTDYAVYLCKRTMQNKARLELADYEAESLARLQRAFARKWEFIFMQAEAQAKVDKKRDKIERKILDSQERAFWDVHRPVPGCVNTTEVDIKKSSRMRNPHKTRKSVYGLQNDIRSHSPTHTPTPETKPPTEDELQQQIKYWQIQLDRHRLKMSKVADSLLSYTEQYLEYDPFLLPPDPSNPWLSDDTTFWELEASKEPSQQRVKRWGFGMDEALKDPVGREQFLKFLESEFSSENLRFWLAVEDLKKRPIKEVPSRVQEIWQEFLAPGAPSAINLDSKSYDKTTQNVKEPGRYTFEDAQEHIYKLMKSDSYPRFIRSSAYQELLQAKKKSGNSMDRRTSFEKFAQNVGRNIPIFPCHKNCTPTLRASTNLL
Sequence of RGS7/Gβ5 duplex (O14775 43-395): as the sequence (O14775 43-395) above
Sequence of RGS7/TS-Gβ5 duplex (human) (P49802 whole entry, chain 1 of 2): as the sequence (P49802 whole entry) above
Sequence of RGS7/TS-Gβ5 duplex (human) (O14775 43-395, chain 2 of 2, further chain): as the sequence (O14775 43-395) above

Row | percent reduction of the binding of R7BP-FL with the RGS7/Gβ5 duplex [1] [%] | pKd [2] | Substance
1 | 50 | – | R7BPΔNC (construct R7BPΔNC-TEV-TS) (from UniProt Q6MZT1 21-223) (domain or fragment)
2 | – | 8.64 | RGS7/Gβ5 duplex (from UniProt P49802 1-495; O14775-2 1-353) (complex)
3 | – | 8.49 | RGS9/Gβ5 duplex (from UniProt O75916 1-674; O14775-2 1-353) (complex)

The next lines start with the substance.

Row | Substance | percent reduction of the binding of R7BP-FL with the RGS7/Gβ5 duplex [1] [%] | pKd [2]
4 | RGS6/Gβ5 duplex (from UniProt P49758 1-472; O14775-2 1-353) (complex) | – | 8.82
5 | RGS11/Gβ5 duplex (from UniProt O94810 1-467; O14775-2 1-353) (complex) | – | 8.82
